Test [1] concerns the target CD31 solubilized from Jurkat T cell lysates and captured on PECAM 1.2-coupled CBA beads (human) (UniProt P16284). The test is described as follows: co-capture on PECAM 1.2 CBA beads from Jurkat lysate, anti-CD3-FITC, flow cytometry; positive pY control (Na3VO4/H2O2).
The target is the same in test [2]. The test is described as follows: co-capture on PECAM 1.2 CBA beads from Jurkat lysate, anti-CD3-FITC, flow cytometry; negative control (unstimulated).
Test [3] shares this target. The test can be described thus: co-capture on PECAM 1.2 CBA beads from Jurkat lysate, anti-CD3-FITC, flow cytometry; antibody CD31 treatment (CD3 + CD31 crosslink).
For test [4] the target is unchanged. The test can be described thus: co-capture on PECAM 1.2 CBA beads from Jurkat lysate, anti-CD3-FITC, flow cytometry; T-cell activation (CD3 crosslink).
Test [5] has the same target. The test can be described thus: co-capture on PECAM 1.2 CBA beads from Jurkat lysate, anti-CD28-PE, flow cytometry; peptide CD31 treatment (CD3 crosslink + CD31 peptide).
For test [6] the target is unchanged. The test can be described thus: co-capture on PECAM 1.2 CBA beads from Jurkat lysate, anti-CD28-PE, flow cytometry; antibody CD31 treatment (CD3 + CD31 crosslink).
Test [7] has the same target. The test is described as follows: co-capture on PECAM 1.2 CBA beads from Jurkat lysate, anti-CD28-PE, flow cytometry; T-cell activation (CD3 crosslink).
For test [8] the target is unchanged. The test can be described thus: co-capture on PECAM 1.2 CBA beads from Jurkat lysate, anti-CD28-PE, flow cytometry; positive pY control (Na3VO4/H2O2).
Test [9] shares this target. The test can be described thus: co-capture on PECAM 1.2 CBA beads from Jurkat lysate, anti-CD28-PE, flow cytometry; negative control (unstimulated).
The target is the same in test [10]. The test can be described thus: co-capture on PECAM 1.2 CBA beads from Jurkat lysate, anti-SHP2-PE, flow cytometry; positive pY control (Na3VO4/H2O2).
For test [11] the target is unchanged. The test can be described thus: co-capture on PECAM 1.2 CBA beads from Jurkat lysate, anti-SHP2-PE, flow cytometry; antibody CD31 treatment (CD3 + CD31 crosslink).
Test [12] has the same target. The test is described as follows: co-capture on PECAM 1.2 CBA beads; antibody CD31 treatment against CD3 crosslink conditions.
Test [13] shares this target. The test can be described thus: co-capture on PECAM 1.2 CBA beads; peptide CD31 treatment against CD3 crosslink conditions.
Test [14] shares this target. The test can be described thus: co-capture on PECAM 1.2 CBA beads from Jurkat lysate, anti-SHP2-PE, flow cytometry; T-cell activation (CD3 crosslink).
Test [15] has the same target. The test is described as follows: co-capture on PECAM 1.2 CBA beads from Jurkat lysate, anti-SHP2-PE, flow cytometry; peptide CD31 treatment (CD3 crosslink + CD31 peptide).
Test [16] shares this target. The test can be described thus: co-capture on PECAM 1.2 CBA beads from Jurkat lysate, anti-SHP2-PE, flow cytometry; negative control (unstimulated).

For CD3 (receptor), the MFI CD3 in test [1] came out at 354 MFI; in test [2], 197 MFI; in [3], 2420 MFI; in test [4] it was 17900 MFI.

On to “CD28 (from UniProt P10747 19-220) (receptor)”, for which the MFI CD28 in test [5] is 24300 MFI; in test [6], 17100 MFI; in [7] it was 25200 MFI; in [8] it was 3930 MFI; in test [9], 8160 MFI.

Turning to “SHP-2 (from UniProt Q06124 2-593) (enzyme)”, the MFI SHP-2 was determined as 193 MFI in test [10]; 149 MFI in test [11]; 90 MFI in test [14]; 185 MFI in test [15]; 165 MFI in test [16]. For the same substance, the figures for the increase of the amount of SHP-2 associated to CD31 in [12] and in test [13] were 50% and 100%, respectively.
